Laboratory results taken from patent publication US11155643B2, “Glucan kinases and methods for processing starch using the same” (University of Kentucky Research Foundation, priority 2017, dated 2021).

Key:
[1] = cellulose phosphorylation assay (33P-β-ATP radio-label incorporation into cellulose); format: biochemical; details: FIG. 11C, 11D
Method: Next, it was tested whether phosphorylation could be directed towards cellulose, the most abundant polymer on earth, by building chimeras comprising cellulose-binding CBMs. Both the CBM30 and CBM44 were chosen from the cellulase CelJ of the thermophilic, gram-positive bacterium Clostridium thermocellum, which bind cellulose with high affinity. The engineered protein containing CtCBM30 and CtCBM44 was purified. The starch-phosphorylation assay was modified to develop an assay for measure phosphorylation of cellulose, which was obtained from Sigma-Avicel PH-101. To measure dikinase activity, the cellulose was incubated with the engineered chimeric dikinase in question along with ^33P-β-ATP, the ^33P-β-ATP and enzyme were washed out, and radio-label incorporation into the cellulose was measured.

[2] = stability of purified, concentrated protein on storage; format: physicochemical; details: 4° C., concentrated to 18 mg/ml
Method: In addition, these constructs were purified using a 3-step purification scheme to sufficient purity for enzymatic assays (FIGS. 9B,D & 10A). Constructs that express each of the individual domains were identified, as well as constructs just lacking the cTP. Expression yields for these constructs ranged from 2-65 mg/1 L of E. coli using a 3-step purification. One of the most promising St-GWD constructs allowed the instant inventors to purify 60-65 mg of >95% pure St-GWD per liter of E. coli using a 3-step purification protocol (FIGS. 10A & 10B). Importantly, the purified protein was concentrated to 18 mg/ml and the protein was stable at 4° C. for >1 WEEK.

[3] = glucose release from native starch treated with combinations of amylases, dikinase and phosphatase; format: biochemical, Arabidopsis; details: BAM3, ISA3; 25° C., 60 minutes; FIG. 7
Method: FIG. 7 includes a plot showing the glucose released for native Arabidopsis starch that was incubated at 25° C. for 60 minutes with combinations of amylases (BAM+ISA), dikinase (At-GWD), or phosphatase (At-SEX4), undigested starch was pelleted with a high-speed spin, the supernatant sugars were hydrolyzed via acid hydrolysis and glucose content was measured.
To observe how GWDs can be utilized to enhance starch utilization, native Arabidopsis starch was first treated with combinations of BAM3, ISA3, St-GWD, and At-SEX4. a high-speed spin was performed to remove the undigested starch, any remaining oligo-saccharides were hydrolyzed, and glucose released into the supernatant was measured (FIG. 7). Glucose was only released upon addition of amylases.
Native Arabidopsis starch was treated with combinations of BAM3, ISA3, StGWD, and AtSEX4, performed a high-speed spin to remove the undigested starch, hydrolyzed any remaining oligo-saccharides, and measured glucose released into the supernatant (FIG. 7). Glucose was only released upon addition of amylases, as expected.

Row | effect on glucose release when added to amylases [3] | Molecule | phosphorylation of cellulose [1] | time the protein was stable [2] [WEEK]
1 |  | CtCBM30-StGWD: chimera of Clostridium thermocellum CelJ CBM30 and StGWD dikinase domain (protein, Chimeric Protein, chimera of Clostridium thermocellum CelJ CBM30 and StGWD dikinase domain) MGHHHHHHMEQKLISEEDLTSASSASAETVAPEGYRKLLDVQIFKDSPVVGWSGSGMGELETIGDTLPVDTTVTYNGLPTLRLNVQTTVQSGWWISLLTLRGWNTHDLSQYVENGYLEFDIKGKEGGEDFVIGFRDKVYERVYGLEIDVTTVISNYVTVTTDWQHVKIPLRDLMKINNGFDPSSVTCLVFSKRYADPFTVWFSDIKITSEDNEKSAPAIKVGVQINPVSGLPSGFQDLLHFVLDHVEDKNVETLLERLLEAREELRPLLLKPNNRLKDLLFLDIALDSTVRTAVERGYEELNNANPEKIMYFISLVLENLALSVDDNEDLVYCLKGWNQALSMSNGGDNHWALFAKAVLDRTRLALASKAEWYHHLLQPSAEYLGSILGVDQWALNIFTEEIIRAGSAASLSSLLNRLDPVLRKTANLGSWQIISPVEAVGYVVVVDELLSVQNEIYEKPTILVAKSVKGEEEIPDGAVALITPDMPDVLSHVSVRARNGKVCFATCFDPNILADLQAKEGRILLLKPTPSDIIYSEVNEIELQSSSNLVEAETSATLRLVKKQFGGCYAISADEFTSEMVGAKSRNIAYLKGKVPSSVGIPTSVALPFGVFEKVLSDDINQGVAKELQILMKKLSEGDFSALGEIRTTVLDLSAPAQLVKELKEKMQGSGMPWPGDEGPKRWEQAWMAIKKVWASKWNERAYFSTRKVKLDHDYLCMAVLVQEIINADYAFVIHTTNPSSGDDSEIYAEVVRGLGETLVGAYPGRALSFICKKKDLNSPQVLGYPSKPIGLFIKRSIIFRSDSNGEDLEGYAGAGLYDSVPMDEEEKVVIDYSSDPLITDGNFRQTILSNIARAGHAIEELYGSPQDIEGVVRDGKIYVVQTRPQM | robustly phosphorylated cellulose | 
2 | almost doubled | St-GWD: full length Solanum tuberosum glucan, water dikinase, amino acids 1-1464 (protein, listed as Solanum tuberosum) MSNSLGNNLLYQGFLTSTVLEHKSRISPPCVGGNSLFQQQVISKSPLSTEFRGNRLKVQKKKIPMEKKRAFSSSPHAVLTTDTSSELAEKFSLGGNIELQVDVRPPTSGDVSFVDFQVTNGSDKLFLHWGAVKFGKETWSLPNDRPDGTKVYKNKALRTPFVKSGSNSILRLEIRDTAIEAIEFLIYDEAHDKWIKNNGGNFRVKLSRKEIRGPDVSVPEELVQIQSYLRWERKGKQNYPPEKEKEEYEAARTVLQEEIARGASIQDIRARLTKTNDKSQSKEEPLHVTKSDIPDDLAQAQAYIRWEKAGKPNYPPEKQIEELEEARRELQLELEKGITLDELRKTITKGEIKTKVEKHLKRSSFAVERIQRKKRDFGHLINKYTSSPAVQVQKVLEEPPALSKIKLYAKEKEEQIDDPILNKKIFKVDDGELLVLVAKSSGKTKVHLATDLNQPITLHWALSKSPGEWMVPPSSILPPGSIILDKAAETPFSASSSDGLTSKVQSLDIVIEDGNFVGMPFVLLSGEKWIKNQGSDFYVGFSAASKLALKAAGDGSGTAKSLLDKIADMESEAQKSFMHRFNIAADLIEDATSAGELGFAGILVWMRFMATRQLIWNKNYNVKPREISKAQDRLTDLLQNAFTSHPQYREILRMIMSTVGRGGEGDVGQRIRDEILVIQRNNDCKGGMMQEWHQKLHNNTSPDDVVICQALIDYKSDFDLGVYWKTLNENGITKERLLSYDRAIHSEPNFRGDQKGGLLRDLGHYMRTLKAVHSGADLESAIANCMGYKTEGEGFMVGVQINPVSGLPSGFQDLLHFVLDHVEDKNVETLLERLLEAREELRPLLLKPNNRLKDLLFLDIALDSTVRTAVERGYEELNNANPEKIMYFISLVLENLALSVDDNEDLVYCLKGWNQALSMSNGGDNHWALFAKAVLDRTRLALASKAEWYHHLLQPSAEYLGSILGVDQWALNIFTEEIIRAGSAASLSSLLNRLDPVLRKTANLGSWQIISPVEAVGYVVVVDELLSVQNEIYEKPTILVAKSVKGEEEIPDGAVALITPDMPDVLSHVSVRARNGKVCFATCFDPNILADLQAKEGRILLLKPTPSDIIYSEVNEIELQSSSNLVEAETSATLRLVKKQFGGCYAISADEFTSEMVGAKSRNIAYLKGKVPSSVGIPTSVALPFGVFEKVLSDDINQGVAKELQILMKKLSEGDFSALGEIRTTVLDLSAPAQLVKELKEKMQGSGMPWPGDEGPKRWEQAWMAIKKVWASKWNERAYFSTRKVKLDHDYLCMAVLVQEIINADYAFVIHTTNPSSGDDSEIYAEVVRGLGETLVGAYPGRALSFICKKKDLNSPQVLGYPSKPIGLFIKRSIIFRSDSNGEDLEGYAGAGLYDSVPMDEEEKVVIDYSSDPLITDGNFRQTILSNIARAGHAIEELYGSPQDIEGVVRDGKIYVVQTRPQM |  | > 1
